Among the data in the Immune Epitope Database (IEDB) are Kd values, retold here.

Holding throughout (experiment): IEDB peptide-MHC binding, purified MHC/competitive/radioactivity; filed as Kd, often an IC50 or EC50 that approximates it; ≥ and ≤ were set here for values at or beyond the usual limits of such assays
In assay [1] the target is HLA-A*68:01.
For assay [2], the target named is HLA-A*31:01.
The target in assay [3] is HLA-A*11:01.
The target of assay [4] is HLA-A*33:01.
For assay [5], the target named is HLA-A*03:01.
Setting [6] is: source organism: Vaccinia virus WR.
The mark [7] stands for this setting: source organism: SARS coronavirus Tor2.
The mark [8] stands for this setting: source organism: Mammarenavirus juninense.
[9] abbreviates: source organism: Triticum aestivum.

For orientation: Kd means the concentration at which binding is half-saturated. Regarding ILFMEMFFDY, the dissociation constant (Kd) was 0.845 µM in assay [1] (setting [6]); 5.47 µM in assay [2] (setting [6]); 0.121 µM in assay [3] (setting [6]); at least 64.3 µM in assay [4] (setting [6]); 0.0316 µM in assay [5] (setting [6]).
As for VQIDRLITGR, the Kd in assay [1] (setting [7]) is 1.03 µM; in assay [2] (setting [7]), 0.0436 µM; in assay [3] (setting [7]), 3.02 µM; in assay [4] (setting [7]), 0.912 µM; in assay [5] (setting [7]) it was 1.99 µM.
On to LTTHCTKLR, for which the Kd in assay [1] (setting [6]) was 0.3 µM; in assay [2] (setting [6]), 8.51 µM; in assay [3] (setting [6]) it was at least 77.9 µM; in assay [4] (setting [6]), 4.53 µM; in assay [5] (setting [6]), at least 78 µM.
Turning to LMAYANQIHH, the Kd in assay [1] (setting [8]) is at least 24.2 µM; in assay [2] (setting [8]), at least 24.5 µM; in assay [3] (setting [8]), 9.79 µM; in assay [4] (setting [8]), at least 53.9 µM; in assay [5] (setting [8]), 0.523 µM.
In the case of IVQMLSDTLK, the Kd in assay [1] (setting [7]) is 1.18 µM; in assay [2] (setting [7]) it was 3.82 µM; in assay [3] (setting [7]), 0.0644 µM; in assay [4] (setting [7]), at least 22.5 µM; in assay [5] (setting [7]), 0.292 µM.
Turning to CFKEASFSKR, the Kd in assay [1] (setting [6]) was 1.64 µM; in assay [2] (setting [6]) it was 0.0359 µM; in assay [3] (setting [6]), at least 43.6 µM; in assay [4] (setting [6]), 0.0614 µM; in assay [5] (setting [6]) it was 9.16 µM.
On the same counts, the results for LSKIPYLRNY are 9.65 µM, 0.32 µM, 2.61 µM, 9.09 µM and 6.94 µM.
For YTKFWYVNH, the Kd was determined as 6.51 µM in assay [1] (setting [8]); 0.604 µM in assay [2] (setting [8]); 17.8 µM in assay [3] (setting [8]); 0.0282 µM in assay [4] (setting [8]); 10.3 µM in assay [5] (setting [8]).
With IASKINNNR, the Kd in assay [1] (setting [6]) was determined as 0.00186 µM; in assay [2] (setting [6]), 0.0288 µM; in assay [3] (setting [6]), 0.329 µM; in assay [4] (setting [6]), 0.0766 µM; in assay [5] (setting [6]), 13.2 µM.
Consider SLNRQTVSR, for which the Kd was 0.818 µM in assay [1] (setting [6]); 0.0072 µM in assay [2] (setting [6]); 1.35 µM in assay [3] (setting [6]); 0.286 µM in assay [4] (setting [6]); 0.0671 µM in assay [5] (setting [6]).
For QQQQQQQQK, the dissociation constant (Kd) in assay [1] (setting [9]) was at least 31.3 µM; in assay [2] (setting [9]), 5.38 µM; in assay [3] (setting [9]), 0.845 µM; in assay [4] (setting [9]) it was at least 56.4 µM; in assay [5] (setting [9]), 2.11 µM.
On to QTIASKKDK, for which the Kd was 0.265 µM in assay [1] (setting [6]); 0.589 µM in assay [2] (setting [6]); 0.766 µM in assay [3] (setting [6]); at least 77.7 µM in assay [4] (setting [6]); 0.317 µM in assay [5] (setting [6]).
Take IFPANINDK: the Kd was found to be 1.2 µM in assay [1] (setting [6]); 3.58 µM in assay [2] (setting [6]); 1.09 µM in assay [3] (setting [6]); 12.5 µM in assay [4] (setting [6]); 2.24 µM in assay [5] (setting [6]).
In the case of NTTYDFLARK, the Kd was 0.00958 µM in assay [1] (setting [6]); 5.55 µM in assay [2] (setting [6]); 0.0318 µM in assay [3] (setting [6]); 4.51 µM in assay [4] (setting [6]); 0.691 µM in assay [5] (setting [6]).
In the case of TSDSKSIENK, the dissociation constant (Kd) in assay [1] (setting [6]) is 0.369 µM; in assay [2] (setting [6]), 14.4 µM; in assay [3] (setting [6]) it was 0.534 µM; in assay [4] (setting [6]) it was at least 34.2 µM; in assay [5] (setting [6]), 10.4 µM.
Take VMHINSPFK: the Kd in assay [1] (setting [6]) amounted to 0.0793 µM; in assay [2] (setting [6]), 0.0199 µM; in assay [3] (setting [6]) it was 0.000224 µM; in assay [4] (setting [6]) it was 10.7 µM; in assay [5] (setting [6]) it was 0.0018 µM.
For the sequence TLVPQEHYVR, the equilibrium dissociation constant (Kd) in assay [1] (setting [7]) turned out to be 0.445 µM; in assay [2] (setting [7]), 0.989 µM; in assay [3] (setting [7]) it was 0.436 µM; in assay [4] (setting [7]), 1.91 µM; in assay [5] (setting [7]) it was 0.13 µM.
In the case of SISSVLTILY, the Kd came to 0.907 µM in assay [1] (setting [6]); 9.23 µM in assay [2] (setting [6]); 0.107 µM in assay [3] (setting [6]); 2.24 µM in assay [4] (setting [6]); 0.206 µM in assay [5] (setting [6]).
As for ALGGSIAVK, the Kd in assay [1] (setting [7]) was 11.2 µM; in assay [2] (setting [7]) it was 12.5 µM; in assay [3] (setting [7]) it was 0.171 µM; in assay [4] (setting [7]), at least 77.7 µM; in assay [5] (setting [7]), 0.0152 µM.
In the case of ISSRVDRYSK, the Kd was 0.861 µM in assay [1] (setting [6]); 7.2 µM in assay [2] (setting [6]); 0.287 µM in assay [3] (setting [6]); at least 70 µM in assay [4] (setting [6]); at least 27.3 µM in assay [5] (setting [6]).
